Experimental data reported in patent US20230346885A1 (published 2023).
Each block holds one binder with its values, some of them ahead of it.

Key:
Assay in all cases: binding, other
SLC45A2 peptide on HLA [1] = target: T1, SLC45A2 peptide on HLA (human)
T1 peptide: RLLGTEFQV

SMC1B peptide on HLA [2] = target: T2, SMC1B peptide on HLA (human)
T2 peptide: KLQKEVVSI

SLC30A8 peptide on HLA = target: T3, SLC30A8 peptide on HLA (human)
T3 peptide: ILAVDGVLSV

SMC1B peptide on HLA [3] = target: T4, SMC1B peptide on HLA (human)
T4 peptide: NIQELIHGA

SLC45A2 peptide on HLA [4] = target: T5, SLC45A2 peptide on HLA (human)
T5 peptide: SLYSYFQKV

binding result (SLC45A2 peptide on HLA [1]): recognises
B1: TCR of SEQ ID NOs 565 and 566 (TCR, V domains shown)
Valpha: KQEVTQIPAALSVPEGENLVLNCSFTDSAIYNLQWFRQDPGKGLTSLLLIQSSQREQTSGRLNASLDKSSGRSTLYIAASQPGDSATYLCAVDKAAGNKLTFGGGTRVLVKP
Vbeta: NAGVTQTPKFQVLKTGQSMTLQCAQDMNHNYMYWYRQDPGMGLRLIHYSVGAGITDQGEVPNGYNVSRSTTEDFPLRLLSAAPSQTSVYFCASKNWGTEAFFGQGTRLTVV

binding result (SMC1B peptide on HLA [2]): recognises
B2: TCR of SEQ ID NOs 591 and 592 (TCR, V domains shown)
Valpha: KQEVTQIPAALSVPEGENLVLNCSFTDSAIYNLQWFRQDPGKGLTSLLLIQSSQREQTSGRLNASLDKSSGRSTLYIAASQPGDSATYLCAVDQDSGYALNFGKGTSLLVTP
Vbeta: DTGVSQNPRHKITKRGQNVTFRCDPISEHNRLYWYRQTLGQGPEFLTYFQNEAQLEKSRLLSDRFSAERPKGSFSTLEIQRTEQGDSAMYLCASSLYRSYEQYFGPGTRLTVT

binding result (SMC1B peptide on HLA [2]): recognises
B3: TCR of SEQ ID NOs 587 and 588 (TCR, V domains shown)
Valpha: KQEVTQIPAALSVPEGENLVLNCSFTDSAIYNLQWFRQDPGKGLTSLLLIQSSQREQTSGRLNASLDKSSGRSTLYIAASQPGDSATYLCAVSPRSNDYKLSFGAGTTVTVRA
Vbeta: NAGVTQTPKFRILKIGQSMTLQCAQDMNHNYMYWYRQDPGMGLKLIYYSVGAGITDKGEVPNGYNVSRSTTEDFPLRLELAAPSQTSVYFCASSTGSSYNSPLHFGNGTRLTVT

binding result (SLC30A8 peptide on HLA): recognises
B4: TCR of SEQ ID NOs 551 and 552 (TCR, V domains shown)
Valpha: KQEVTQIPAALSVPEGENLVLNCSFTDSAIYNLQWFRQDPGKGLTSLLLIQSSQREQTSGRLNASLDKSSGRSTLYIAASQPGDSATYLCAVTGNQFYFGTGTSLTVIP
Vbeta: NAGVTQTPKFRVLKTGQSMTLQCAQDMNHEYMYWYRQDPGMGLRLIHYSVGAGITDQGEVPNGYNVSRSTTEDFPLRLLSAAPSQTSVYFCASSTYPVWGGEKMFFGSGTQLSVL

binding result (SLC30A8 peptide on HLA): recognises
B5: TCR of SEQ ID NOs 555 and 556 (TCR, V domains shown)
Valpha: KQEVTQIPAALSVPEGENLVLNCSFTDSAIYNLQWFRQDPGKGLTSLLLIQSSQREQTSGRLNASLDKSSGRSTLYIAASQPGDSATYLCAVQTGANNLFFGTGTRLTVIP
Vbeta: NAGVTQTPKFRILKIGQSMTLQCTQDMNHNYMYWYRQDPGMGLRLIHYSVGAGITDQGEVPNGYNVSRSTTEDFPLRLLSAAPSQTSVYFCASSTYPVWGGEKLFFGSGTQLSVL

binding result (SMC1B peptide on HLA [2]): recognises
B6: TCR of SEQ ID NOs 589 and 590 (TCR, V domains shown)
Valpha: QKEVEQNSGPLSVPEGAIASLNCTYSDRGSQSFFWYRQYSGKSPELIMSIYSNGDKEDGRFTAQLNKASQYVSLLIRDSQPSDSATYLCAVGGRDDKIIFGKGTRLHILP
Vbeta: NAGVTQTPKFQVLKTGQSMTLQCAQDMNHNSMYWYRQDPGMGLRLIYYSASEGTTDKGEVPNGYNVSRSTTEDFPLRLLSAAPSQTSVYFCASSYTDGVNSPLHFGNGTRLTVT

binding result (SLC45A2 peptide on HLA [1]): recognises
B7: TCR of SEQ ID NOs 567 and 568 (TCR, V domains shown)
Valpha: KQEVTQIPAALSVPEGENLVLNCSFTDSAIYNLQWFRQDPGKGLTSLLLIQSSQREQTSGRLNASLDKSSGRSTLYIAASQPGDSATYLCAVSGGGADGLTFGKGTHLIIQP
Vbeta: NAGVTQTPKFRILKIGQSMTLQCTQDMNHNYMYWYRQDPGMGLKLIYYSVGAGITDQGEVPNGYNVSRLNKREFSLRLESAAPSQTSVYFCASSEEGWSNSPLHFGNGTRLTVT

binding result (SMC1B peptide on HLA [3]): recognises
B8: TCR of SEQ ID NOs 593 and 594 (TCR, V domains shown)
Valpha: KQEVTQIPAALSVPEGENLVLNCSFTDSAIYNLQWFRQDPGKGLTSLLLIQSSQREQTSGRLNASLDKSSGRSTLYIAASQPGDSATYLCAVRPWGYNQGGKLIFGQGTELSVKP
Vbeta: NAGVTQTPKFQVLKTGQSMTLQCAQDMNHNSMYWYRQDPGMGLRLIYYSASEGTTDKGEVPNGYNVSRSTTEDFPLRLLSAAPSQTSVYFCASSYWGDTEAFFGQGTRLTVV

binding result (SLC45A2 peptide on HLA [4]): recognises
B9: TCR of SEQ ID NOs 573 and 574 (TCR, V domains shown)
Valpha: KQEVTQIPAALSVPEGENLVLNCSFTDSAIYNLQWFRQDPGKGLTSLLLIQSSQREQTSGRLNASLDKSSGRSTLYIAASQPGDSATYLCAVRGYSTLTFGKGTMLLVSP
Vbeta: NAGVTQTPKFQVLKTGQSMTLQCAQDMNHEYMSWYRQDPGMGLRLIHYSVGAGITDQGEVPNGYNVSRSTTEDFPLRLLSAAPSQTSVYFCASSRGQFTEAFFGQGTRLTVV

binding result (SLC30A8 peptide on HLA): recognises
B10: TCR of SEQ ID NOs 553 and 554 (TCR, V domains shown)
Valpha: QKEVEQNSEPLSVPEGAIASLNCTYSDRGSQSFFWYRQYSGKSPELIMSIYSNGDKEDGRFTAQLNKASQYVSLLIRDSQPSDSATYLCAVNSQGGKLMFGQGTELSVKP
Vbeta: NAGVTQTPKFRVLKTGQSMTLQCAQDMNHNYMYWYRQDPGMGLRLIHYSVGEGTTAKGEVPDGYNVSRLKKQNFLLGLESAAPSQTSVYFCASSYAPWPGPYEQYVGPGTRLTVT

binding result (SLC45A2 peptide on HLA [4]): recognises
B11: TCR of SEQ ID NOs 571 and 572 (TCR, V domains shown)
Valpha: KQEVTQIPAALSVPEGENLVLNCSFTDSAIYNLQWFRQDPGKGLTSLLLIQSSQREQTSGRLNASLDKSSGRSTLYIAASQPGDSATYLCAALSYNTDKLIFGTGTRLQVFP
Vbeta: NAGVTQTPKFQVLKTGQSMTLQCAQDMNHNSMYWYRQDPGMGLRLIYYSASEGTTDKGEVPNGYNVSRLNKREFSLRLESAAPSQTSVYFCASRYSPYTEAFFGQGTRLTVV

binding result (SLC45A2 peptide on HLA [1]): recognises
B12: TCR of SEQ ID NOs 563 and 564 (TCR, V domains shown)
Valpha: KQEVTQIPAALSVPEGENLVLNCSFTDSAIYNLQWFRQDPGKGLTSLLLIQSSQREQTSGRLNASLDKSSGRSTLYIAASQPGDSATYLCAVRPTEYGNKLVFGAGTILRVKS
Vbeta: NAGVTQTPKFRVLKTGQSMTLLCAQDMNHEYMYWYRQDPGMGLRLIHYSVGEGTTAKGEVPDGYNVSRLKKQNFLLGLESAAPSQTSVYFCASSNEGGGYTFGSGTRLTVV

binding result (SMC1B peptide on HLA [3]): recognises
B13: TCR of SEQ ID NOs 597 and 598 (TCR, V domains shown)
Valpha: KQEVTQIPAALSVPEGENLVLNCSFTDSAIYNLQWFRQDPGKGLTSLLLIQSSQREQTSGRLNASLDKSSGRSTLYIAASQPGDSATYLCAVWSWGKLQFGAGTQVVVTP
Vbeta: NAGVTQTPKFRVLKTGQSMTLLCAQDMNHEYMYWYRQDPGMGLRLIHYSVGEGTTAKGEVPDGYNVSRLKKQNFLLGLESAAPSQTSVYFCASSRGVPEVFFGQGTRLTVV

binding result (SMC1B peptide on HLA [3]): recognises
B14: TCR of SEQ ID NOs 595 and 596 (TCR, V domains shown)
Valpha: KQEVTQIPAALSVPEGENLVLNCSFTDSAIYNLQWFRQDPGKGLTSLLLIQSSQREQTSGRLNASLDKSSGRSTLYIAASQPGDSATYLCAVKEGTDSWGKFQFGAGTQVVVTP
Vbeta: NAGVTQTPKFRVLKTGQSMTLLCAQDMNHEYMYWYRQDPGMGLRLIHYSVGEGTTAKGEVPDGYNVSRLKKQNFLLGLESAAPSQTSVYFCASSYPSREAFFGQGTRLTVV

binding result (SLC45A2 peptide on HLA [4]): recognises
B15: TCR of SEQ ID NOs 569 and 570 (TCR, V domains shown)
Valpha: KQEVTQIPAALSVPEGENLVLNCSFTDSAIYNLQWFRQDPGKGLTSLLLIQSSQREQTSGRLNASLDKSSGRSTLYIAASQPGDSATYLCAVRDSWGKFQFGAGTQVVVTP
Vbeta: NAGVTQTPKFRVLKTGQSMTLLCAQDMNHEYMYWYRQDPGMGLRLIHYSVGEGTTAKGEVPDGYNVSRLKKQNFLLGLESAAPSQTSVYFCASSLGQGYGLAYDEQFFGPGTRLTVL
